Tests used:
[1] = target: T1, Human CD93 on cells (human CD93 expressing CHO cells; HUVEC, U937 and KG1a cells) (human, UniProt Q9NPY3 22-652); experiment: flow cytometry blocking assay, CHO-hCD93 cells, antibody 50 ug/ml then MMRN2 0.1 ug/ml, APC-A
T1 construct: whole, on cells; also called hCD93 expressing CHO cells; hCD93 CHO cells
T1 sequence (looked up): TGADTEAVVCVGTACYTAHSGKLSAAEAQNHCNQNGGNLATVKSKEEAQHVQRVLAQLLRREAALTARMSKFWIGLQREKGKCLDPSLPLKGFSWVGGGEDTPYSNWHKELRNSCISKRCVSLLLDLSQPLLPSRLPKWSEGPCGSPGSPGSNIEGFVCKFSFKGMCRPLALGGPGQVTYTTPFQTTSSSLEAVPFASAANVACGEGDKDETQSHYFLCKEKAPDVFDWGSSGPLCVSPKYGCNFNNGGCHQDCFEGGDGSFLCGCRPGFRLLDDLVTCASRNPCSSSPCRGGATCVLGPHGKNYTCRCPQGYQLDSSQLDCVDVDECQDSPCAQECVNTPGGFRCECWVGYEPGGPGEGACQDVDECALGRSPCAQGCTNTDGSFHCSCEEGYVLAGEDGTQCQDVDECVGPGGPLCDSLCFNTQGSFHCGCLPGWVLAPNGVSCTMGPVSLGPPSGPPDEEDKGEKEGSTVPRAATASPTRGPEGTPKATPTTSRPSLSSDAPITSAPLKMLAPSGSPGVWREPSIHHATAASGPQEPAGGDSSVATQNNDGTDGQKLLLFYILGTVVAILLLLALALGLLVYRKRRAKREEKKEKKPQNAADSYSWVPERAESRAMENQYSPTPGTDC
Protocol: (§1) After incubation, the cells were washed with FACS buffer and incubated with anti-His conjugated APC or streptavidin conjugated APC at a ratio of 1:500 for 30 minutes at 4° C. After washing with FACS buffer twice, the samples were analyzed and data acquired in NovoCyte Flow.

[2] = target: T1, Human CD93 on cells (human CD93 …); experiment: flow cytometry blocking assay, CHO-hCD93 cells, antibody 50 ug/ml then MMRN2 0.5 ug/ml, APC-A
Protocol: as §1

[3] = target: T2, Human CD93 recombinant protein (Sino Biological Inc, Catalog #12589-H08H) (human, UniProt Q9NPY3 22-580); experiment: BLI (Octet QKe), biotinylated human CD93 on streptavidin biosensors
T2 construct: Biotinylated (EZ-LINK NHS-PEG4 biotin) in the BLI assays; also called hCD93; His-tagged human CD93
T2 sequence (looked up): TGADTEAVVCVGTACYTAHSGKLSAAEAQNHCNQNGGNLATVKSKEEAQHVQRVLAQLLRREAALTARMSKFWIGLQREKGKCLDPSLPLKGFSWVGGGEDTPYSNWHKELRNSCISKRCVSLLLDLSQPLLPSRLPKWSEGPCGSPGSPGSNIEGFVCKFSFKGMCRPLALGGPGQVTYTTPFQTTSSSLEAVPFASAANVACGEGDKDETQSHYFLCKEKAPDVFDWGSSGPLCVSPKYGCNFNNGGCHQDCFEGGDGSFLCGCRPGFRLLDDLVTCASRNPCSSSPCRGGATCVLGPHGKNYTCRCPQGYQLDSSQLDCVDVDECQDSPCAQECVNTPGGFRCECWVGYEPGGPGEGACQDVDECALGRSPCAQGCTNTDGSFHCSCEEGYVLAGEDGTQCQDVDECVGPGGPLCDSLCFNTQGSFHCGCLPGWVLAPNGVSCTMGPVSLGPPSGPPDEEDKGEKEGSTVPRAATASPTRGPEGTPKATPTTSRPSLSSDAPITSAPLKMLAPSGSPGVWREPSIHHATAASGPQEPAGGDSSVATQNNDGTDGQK
Protocol: The binding affinity of anti-CD93 antibodies was determined with bio-layer interferometry using Octet QKe (Fortebio). […] Human CD93 recombinant protein (Sino Biological Inc, Catalog #12589-H08H) was biotinylated using EZ-LINK NHS-PEG4 biotin (Thermo Fisher Scientific). Streptavidin biosensors (Fortebio) were used to load biotinylated CD93 protein (300 seconds in 5 μg/ml). Baseline was stabilized for 60 seconds in 1×kinetics buffer (Fortebio) before anti-CD93 antibodies, at a serial dilution, were allowed to associate for 300 seconds with captured protein. Then the sensors were dissociated in 1× kinetics buffer for 600 seconds. […] (FIG. 41).

[4] = target: T1, Human CD93 on cells (human CD93 …); experiment: flow cytometry blocking assay, CHO-hCD93 cells; blocked ligand hMMRN2 495-674 at 0.1 ug/ml; antibody stored 2 weeks at 40 C
Protocol: Then the cells were incubated with hMMRN2₄₉₅₋₆₇₄ at 0.1 μg/ml. […] After washing with FACS buffer twice, the samples were analyzed, and data acquired in NovoCyte Flow. Recombinant his tagged hMMRN2₄₉₅₋₆₇₄ was produced internally in E. Coli following routine procedure.

[5] = target: T1, Human CD93 on cells (human CD93 …); experiment: flow cytometry titration, HUVEC cells
Protocol: (§2) HUVEC cells were detached by incubation with TrypLE reagents (Thermo Fisher), which preserves the integrity of CD93 on the cell surface. Then the cells were incubated with serial diluted anti-CD93 antibodies for 30 minutes at 4° C. After washing by FACS buffer, the cells were incubated with Alexa Fluor 647 conjugated anti-human IgG (Jackson ImmunoResearch) for 30 minutes in 4° C. After washing by FACS buffer twice, the samples were acquired in NovoCyte Flow Cytometer and analyzed by NovoExpress software.

[6] = target: T1, Human CD93 on cells (human CD93 …); experiment: summary table, column FACS (HUVEC cells); 2 weeks at 40 C
Protocol: as §2

[7] = target: T1, Human CD93 on cells (human CD93 …); experiment: flow cytometry titration, CHO-hCD93 cells
Protocol: as §2, with “Human CD93 expressing CHO” for “HUVEC”

B1: 16E4 (hybridoma) (antibody, IgG2a, V domains shown)
VH: QVQLQQPGAELVKPGASVKLSCKASGYTFTSYWMHWVKQRPGQGLEWIGEIDPSASYTYYNQKFKGKATLTVDKSSSTAYMQLSSLTSEDSAVYYCARSVYYGNKYFDVWGAGTTVTVSS
VL: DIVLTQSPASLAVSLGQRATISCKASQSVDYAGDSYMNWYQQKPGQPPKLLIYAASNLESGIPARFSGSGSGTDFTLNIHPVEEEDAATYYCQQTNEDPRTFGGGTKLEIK
notes: also called 16E4 mAb; 16E4 mIgG2a
M3 gate, % of cells positive for MMRN2 after the antibody [1]: 37.7% | M3 gate, % of cells positive for MMRN2 after the antibody [2]: 65.9%

B2: h7F3 (humanized 7F3, VH3+VL3) (antibody, human IgG1, V domains shown)
VH: QVQLVQSGAEVKKPGASVKVSCKASGYTFTDYEMHWVRQAPGQGLEWMGGIDPETGDTAYNQNFKGRVTMTTDTSTSTAYMELRSLTSDDTAVYYCTNYGNLYYYAMDYWGQGTSVTVSS
VL: EIVLTQSPSSLSASVGDRVTITCRASSSVSSSYLHWYQQKPGKAPKLLIYSTSNLAFGVPSRFSGSGSGTSYTFTISSLQPEDIATYYCQQYSGYPLTFGSGTKLEIK
notes: also called humanized 7F3-hIgG1
Kd [3]: 472 pM | koff [3]: 0.000321 s⁻¹ | kon [3]: 681000 M⁻¹ s⁻¹ | IC50 [4]: 133 pM | EC50 [5]: 1340 pM | EC50 [6]: 1170 pM

B3: h16E4 (humanized 16E4, VH4+VL6) (antibody, V domains shown)
VH: QVQLVQSGAEVKKPGASVKVSCKASGYTFTSYWMHWVRQAPGQGLEWMGEIDPSASYTYYNQKFKGRVTMTRDKSSSTVYMELSSLTSEDSAVYYCARSVYYGNKYFDVWGAGTTVTVSS
VL: DIQMTQSPSTLSASVGDRVTITCKASQSVDYAGDSYMNWYQQKPGKAPKLLIYAASNLESGVPSRFSGSGSGTEFTLTISSLQPDDFATYYCQQTNEDPRTFGGGTKLEIK
notes: Detected with anti-human IgG, so a human Fc
EC50 [7]: 388 pM
